The target of this assay is T1, Saccharomyces cerevisiae Fab1p (Saccharomyces cerevisiae, UniProt P34756 1-2278).
T1 construct: Constructs used in the two-hybrid, coimmunoprecipitation and cross-linking experiments are not described; also called PI3P 5-kinase
As to the kind of experiment: yeast two-hybrid; coimmunoprecipitation; cross-linking.

Here are results for one molecule from patent US20050142561A1 (published 2005).

T1 sequence (P34756 whole entry): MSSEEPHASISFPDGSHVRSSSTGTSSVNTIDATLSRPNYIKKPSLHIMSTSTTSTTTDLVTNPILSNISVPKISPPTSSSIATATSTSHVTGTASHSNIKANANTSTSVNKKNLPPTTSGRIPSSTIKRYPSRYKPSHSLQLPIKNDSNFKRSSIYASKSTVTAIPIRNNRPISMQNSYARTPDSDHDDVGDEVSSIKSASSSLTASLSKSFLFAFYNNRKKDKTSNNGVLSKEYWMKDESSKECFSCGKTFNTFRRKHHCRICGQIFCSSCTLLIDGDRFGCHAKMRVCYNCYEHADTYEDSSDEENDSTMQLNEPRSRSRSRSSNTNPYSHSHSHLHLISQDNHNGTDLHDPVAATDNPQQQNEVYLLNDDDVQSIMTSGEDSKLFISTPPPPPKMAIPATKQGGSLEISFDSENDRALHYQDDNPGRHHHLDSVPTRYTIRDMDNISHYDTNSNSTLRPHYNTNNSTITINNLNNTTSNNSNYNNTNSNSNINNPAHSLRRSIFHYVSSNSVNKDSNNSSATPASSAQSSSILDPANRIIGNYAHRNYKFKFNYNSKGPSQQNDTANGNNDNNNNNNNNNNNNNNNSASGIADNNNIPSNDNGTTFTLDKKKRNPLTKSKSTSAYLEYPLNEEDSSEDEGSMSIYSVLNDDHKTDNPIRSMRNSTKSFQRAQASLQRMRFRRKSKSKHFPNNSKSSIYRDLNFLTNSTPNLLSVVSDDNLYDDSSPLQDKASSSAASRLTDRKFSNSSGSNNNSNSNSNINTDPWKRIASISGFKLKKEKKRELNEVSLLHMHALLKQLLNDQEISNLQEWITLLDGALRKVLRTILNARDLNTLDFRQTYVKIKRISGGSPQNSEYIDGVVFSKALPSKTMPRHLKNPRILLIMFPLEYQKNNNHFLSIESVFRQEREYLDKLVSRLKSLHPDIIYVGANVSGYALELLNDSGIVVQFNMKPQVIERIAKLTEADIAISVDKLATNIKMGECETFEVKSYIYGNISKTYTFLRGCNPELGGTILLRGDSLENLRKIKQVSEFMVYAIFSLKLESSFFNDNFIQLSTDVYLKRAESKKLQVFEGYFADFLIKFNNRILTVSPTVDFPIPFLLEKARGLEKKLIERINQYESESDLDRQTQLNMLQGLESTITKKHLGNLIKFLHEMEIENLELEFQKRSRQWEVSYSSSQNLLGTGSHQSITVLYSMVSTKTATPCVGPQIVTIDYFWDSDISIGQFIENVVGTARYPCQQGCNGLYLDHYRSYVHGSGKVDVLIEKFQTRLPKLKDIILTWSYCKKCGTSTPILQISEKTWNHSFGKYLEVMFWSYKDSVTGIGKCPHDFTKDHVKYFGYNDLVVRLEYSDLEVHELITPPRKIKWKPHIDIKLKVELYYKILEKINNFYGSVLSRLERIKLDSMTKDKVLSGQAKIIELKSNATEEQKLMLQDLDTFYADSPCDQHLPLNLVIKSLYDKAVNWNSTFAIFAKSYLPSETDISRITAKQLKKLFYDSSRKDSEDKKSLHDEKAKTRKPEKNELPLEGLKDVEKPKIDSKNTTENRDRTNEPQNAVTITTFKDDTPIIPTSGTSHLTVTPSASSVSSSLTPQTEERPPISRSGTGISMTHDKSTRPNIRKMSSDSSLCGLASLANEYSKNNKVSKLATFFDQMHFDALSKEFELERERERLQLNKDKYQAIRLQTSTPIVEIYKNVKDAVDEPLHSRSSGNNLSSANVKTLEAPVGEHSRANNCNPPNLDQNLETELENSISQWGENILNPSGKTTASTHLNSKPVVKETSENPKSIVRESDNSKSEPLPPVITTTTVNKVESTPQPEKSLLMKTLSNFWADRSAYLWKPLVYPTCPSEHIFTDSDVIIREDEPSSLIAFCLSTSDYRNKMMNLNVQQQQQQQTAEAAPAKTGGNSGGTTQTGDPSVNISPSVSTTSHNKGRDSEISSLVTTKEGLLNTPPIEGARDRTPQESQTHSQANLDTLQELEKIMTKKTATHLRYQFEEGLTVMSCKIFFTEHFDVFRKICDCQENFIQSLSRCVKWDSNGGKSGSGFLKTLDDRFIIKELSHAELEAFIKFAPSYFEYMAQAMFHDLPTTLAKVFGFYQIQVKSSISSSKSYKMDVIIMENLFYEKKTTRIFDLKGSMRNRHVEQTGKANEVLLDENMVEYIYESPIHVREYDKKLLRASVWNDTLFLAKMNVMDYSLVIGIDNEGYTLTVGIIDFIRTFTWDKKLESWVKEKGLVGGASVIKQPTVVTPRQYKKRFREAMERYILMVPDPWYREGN

B1: Saccharomyces cerevisiae Vac14p (other)
chain: MEKSIAKGLSDKLYEKRKAAALELEKLVKQCVLEGDYDRIDKIIDELCRDYAYALHQPMARNAGLMGLAATAIALGINDVGRYLRNILPPVLACFGDQNDQVRFYACESLYNIAKIAKGEILVYFNEIFDVLCKISADTENSVRGAAELLDRLIKDIVAERASNYISIVNNGSHGLLPAIKTDPISGDVYQEEYEQDNQLAFSLPKFIPLLTERIYAINPDTRVFLVDWLKVLLNTPGLELISYLPSFLGGLFTFLGDSHKDVRTVTHTLMDSLLHEVDRISKLQTEIKMKRLERLKMLEDKYNNSSTPTKKADGALIAEKKKTLMTALGGLSKPLSMETDDTKLSNTNETDDERHLTSQEQLLDSEATSQEPLRDGEEYIPGQDINLNFPEVITVLVNNLASSEAEIQLIALHWIQVILSISPNVFIPFLSKILSVLLKLLSDSDPHITEIAQLVNGQLLSLCSSYVGKETDGKIAYGPIVNSLTLQFFDSRIDAKIACLDWLILIYHKAPNQILKHNDSMFLTLLKSLSNRDSVLIEKALSLLQSLCSDSNDNYLRQFLQDLLTLFKRDTKLVKTRANFIMRQISSRLSPERVYKVISSILDNYNDTTFVKMMIQILSTNLITSPEMSSLRNKLRTCEDGMFFNSLFKSWCPNPVSVISLCFVAENYELAYTVLQTYANYELKLNDLVQLDILIQLFESPVFTRMRLQLLEQQKHPFLHKCLFGILMIIPQSKAFETLNRRLNSLNIWTSQSYVMNNYIRQRENSNFCDSNSDISQRSVSQSKLHFQELINHFKAVSEEDEYSSDMIRLDHGANNKSLLLGSFLDGIDEDKQEIVTPISPMNEAINEEMESPNDNSSVILKDSGSLPFNRNVSDKLKK
notes: 880 amino acid polypeptide; In the Western blot it is the endogenous protein of yeast cell extracts; also called Vac14 yeast; YLR386W product
Regarding B1, the binding result is reported as “no binding”.
